These are literature values, as cited in publication PMC4599565.

The target of the data set is VWF (Homo sapiens) (UniProt P04275).

For ADAMTS13 (from UniProt Q76LX8), the Kd is 20 nM.
